Data reported in publication PMC6651876, “PEA-15 C-Terminal Tail Allosterically Modulates Death-Effector Domain Conformation and Facilitates Protein–Protein Interactions” (International Journal of Molecular Sciences, 2019).

Target: T1, PEA-15 S104D/S116D double mutant (PEA-15DD) (UniProt Q15121 1-130, S104D | S116D)
T1 construct: PEA-15 (phosphoprotein enriched in astrocytes, 15 kDa), full length, with the phosphomimetic mutations S104D and S116D; Made by site-directed mutagenesis of the PEA-15 plasmid (pET-28b); expressed and purified as the wild type
Experiment: NMR titration; data not shown: spectra of uniformly labeled PEA-15DD with unlabeled FADD at molar ratios 1:0.5, 1:1 and 1:2; 20 mM sodium phosphate pH 7.0, 150 mM NaCl, 1 mM DTT
Conditions: both partners purified

T1 sequence (Q15121 whole entry S104D/S116D): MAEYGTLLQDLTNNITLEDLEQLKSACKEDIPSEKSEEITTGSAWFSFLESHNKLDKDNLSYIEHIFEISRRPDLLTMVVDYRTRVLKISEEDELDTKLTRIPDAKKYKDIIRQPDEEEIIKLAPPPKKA

B1: Fas-associated death domain (FADD) protein, full length (natural protein, UniProt Q13158 1-208, looked up)
chain: MDPFLVLLHSVSSSLSSSELTELKFLCLGRVGKRKLERVQSGLDLFSMLLEQNDLEPGHTELLRELLASLRRHDLLRRVDDFEAGAAAGAAPGEEDLCAAFNVICDNVGKDWRRLARQLKVSDTKIDSIEDRYPRNLTERVRESLRIWKNTEKENATVAHLVGALRSCQMNLVADLVQEVQQARDLQNRSGAMSPMSWNSDASTSEAS
notes: FADD (Fas-associated death domain protein), full length; Cloned into pET-28b between NdeI and BamHI
stoichiometry N: 1
